{
  "source": "patent US20250049939A1",
  "about": "“NOVEL FLT3 ANTIBODIES AND ANTIBODY-DRUG-CONJUGATES BASED THEREON, THERAPEUTIC METHODS AND USES THEREOF IN COMBINATION WITH TYROSINE KINASE INHIBITORS” (TUBULIS GmbH, priority 2021, published 2025)",
  "molecules": {"B1": {"name": "20D9: chimeric (rat variable regions, human IgG1) anti-FLT3 monoclonal antibody; VH SEQ ID NO: 5, VL SEQ ID NO: 6 (antibody, V domains shown)", "VH": "DVMLVESGGGLVQPGRSLKLSCVASGFTFNNYWMTWIRQAPGKGLEWIASITKTGGGTYYPDSVKGRFTISRDNAKSTLYLQMNSLRSEDTATYYCTTLQQLGVMDAWGQGASVTVSSA", "VL": "DVQMTQSPSVLSASVGDRITLNCKASQNINKELNWYQQKLGEAPKLLIYNTNNLQTGIPSRFSGSGSGTDYTLTISSLQPEDVATYFCFQHKSWPLTFGSGTKLEIKR", "modifications": "Clone 20D9, heavy chain variable region without a signal seqeunce; Clone 20D9, light chain variable region without a signal seqeunce"}},
  "key": {"human CD64": {"target": "T1, human CD64 (Homo sapiens, UniProt P12314)", "T1 construct": "host or cells: Ba/F3 cells, retrovirally transduced with MSCV-IRES-YFP (pMIY) vector", "T1 sequence (P12314 16-374)": "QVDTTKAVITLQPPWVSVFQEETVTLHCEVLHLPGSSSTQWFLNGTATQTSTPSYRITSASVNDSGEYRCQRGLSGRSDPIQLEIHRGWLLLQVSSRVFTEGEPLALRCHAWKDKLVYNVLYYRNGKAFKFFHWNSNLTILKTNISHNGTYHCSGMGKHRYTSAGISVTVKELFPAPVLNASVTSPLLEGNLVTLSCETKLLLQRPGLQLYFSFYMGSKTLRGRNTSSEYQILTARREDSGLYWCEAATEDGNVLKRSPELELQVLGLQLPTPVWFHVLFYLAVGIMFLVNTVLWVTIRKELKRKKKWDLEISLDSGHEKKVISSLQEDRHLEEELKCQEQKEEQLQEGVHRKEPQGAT", "experiment": "Cell surface binding to Ba/F3 human CD64, flow cytometry", "method": "For antibody binding studies, cells were stained on ice with primary mouse, rat or human anti-FLT3 antibodies (in house) and secondary antibody Goat F(ab′)2 Anti-Human Ig-PE (2012-09), Goat Anti-Mouse IgG (H+L)-PE (1032-09) or Goat Anti-Rat IgG (H+L)-PE (3052-09) purchased from Southern Biotech. For internalization experiments, cells incubated with anti-FLT3 antibodies were washed and incubated for 30 min at 4° C. or 37° C. followed by staining with secondary antibody.\nMurine FLT3 (OMu21985D, Genescript), human CD64 (RC207487), CD32 (RC205786) and CD16 (RC206429), were purchased from Origene. Cynomolgues monkey FLT3 gene was synthesized from XM_015439107.1 by Eurofins. The constructs were cloned into retroviral expression vector MSCV-IRES-YFP (pMIY) using the In-Fusion HD Cloning Plus Kit (Takara Bio, Saint-Germain-en-Laye, France). All FLT3 point mutations were generated using the QuikChange II XL Site-Directed Mutagenesis Kit (Agilent Technologies, Santa Clara, CA, USA) and correct sequence was confirmed by Sanger sequencing. […]\nFor FLT3 expression analysis, cells were stained on ice with primary mouse anti-FLT3-AF647 antibodies for 30 min. […] Binding and expression were subsequently measured at the flow cytometer (BD FACSCanto II) and the results were evaluated with FlowJo version 10.8.1."}, "[1]": {"test_system": "FLT3 positive human cell lines", "experiment": "Cytotoxicity in leukemia and lymphoma cell lines, 96 h resazurin", "assay_type": "cell-based", "conditions": "FLT3 positive and negative cell lines", "description": "(A) Correlation of MFI of CD64 cell surface expression and MFI of FLT3 cell surface expression of myeloid human cell lines measure in flow cytometry. Expression data presented in Supplementary FIGS. 4A and B. Black line indicates simple linear regression with error interval. r=Pearson correlation coefficient; r^2=Coefficient of determination; p=p value from two tailed test with confidence interval of 95%. MFI=mean fluorescence intensity. (B,C,E,F) Assessment of cytotoxicity of ADCs in different human cell lines. Viability was determined after 96h treatment with different concentrations of ADCs by resazurin fluorescence and normalized to untreated control. Dashed line indicates 100 ng/ml drug concentration. Mean±s.d. of n=3 biological replicates. […] Black line indicates simple linear regression with error interval. (E) Treatment of FLT3 positive human cell lines with IgG1-ADC."}},
  "data": [
    {"molecule": "B1", "values": [
      {"measurement": "Binding to Fc receptor CD64 via the IgG1 backbone", "setting": "human CD64", "value": "verified the binding"},
      {"measurement": "Effect of unconjugated antibody on cell proliferation", "setting": "[1]", "value": "did not impair cell proliferation"}
    ]}
  ]
}
